For data set [1], the system named is HMGB2 protein. Description: Inhibition of HMGB2 protein by miRNAs in human and mouse cells. The format is cell-based. The method, then:
(§1) Western Blotting: Total protein lysates were prepared from livers and cells in lysis buffer containing 50 mM Tris, pH 8.0, 1% Nonidet™ P-40, 150 mM NaCl, 0.5% sodium deoxycholate, 0.1% SDS with protease inhibitors (Thermo Fisher Scientific) and subjected to immunoblotting. Nuclear and cytoplasmic subcellular fractions were prepared using NE-PER nuclear and cytoplasmic extraction reagents (Pierce) according to the manufacturer's instructions. The blot was incubated with a primary antibody, followed by a secondary antibody conjugated to horseradish peroxidase. ECL kit (Pierce) was used to detect the reactivity. The following antibodies were obtained from Cell Signaling Technology: HMGB2, HMGB1, AKT, p-AKT, mTOR, p-mTOR, ERK1/2, pERK1/2, Raptor, Rictor, p53, p21, p-Bad, Smad4, p-Smad2/3, Lamin A/C, a-SMA, MMP2, MMP9, TIMP1, RhoA, Rho-GTP, Cdc42, Rac1/2/3. Anti-HA antibody and anti-beta actin antibody were purchased from Sigma and Santa Cruz Biotechnology, respectively.
(§2) Cell culture, Cell transfection:HEK293T, Hela, Hep3B and MHCC97H cells were cultured and transfected using X-tremeGENE™ HP DNA transfection reagent (Roche) as described previously. CGR8 ES cells were cultured on 0.1% gelatin coated tissue-culture dish in knockout DMEM medium containing 15% ES qualified-Fetal Bovine Serum, 2 mM L-glutamin, 0.1 mM NEAA, 0.1 mM β-mercaptoethanol, 50 μg/ml penicillin-streptomycin and 10 ng/ml Leukemia inhibitory factor (LIF). TIC cells were cultured in DMEM-F12 medium containing Embryomax nucleotides, 2 mM L-glutamin, 0.1 mM NEAA, 20 ng/ml mouse EGF, 50 μg/ml penicillin-streptomycin and […].
We identified conserved binding sites for miR-539, miR-543, miR-181c, and miR-23α in human and mouse HMGB2 3′UTRs (not sho4wn). We tested the inhibition of HMGB2 protein by these miRNAs in both human and mouse cells. […]

Data set [2] has as its system CGR8 ES cells. Description: qPCR of ES markers and three-germ layer genes in CGR8 ES cells and EBs. Particulars: miR-127 lentivirus versus GFP; CGR8 ES cells and 4d EBs. Format: cell-based, mouse. The method, then:
RNA Isolation and Analysis: RNA was isolated using TRIzol® (Thermo Fisher) according to the manufacturer's instructions. For quantitative real time RT-PCR (q-PCR), RNA was reverse transcribed using iScript™ cDNA Synthesis Kit (Bio-Rad). The resultant cDNA was amplified and quantified using SsoAdvance™ Universal SYBR® Green Supermix (Bio-Rad) in CFX384 Touch™ Real-Time PCR Detection System (BioRad). qPCR was performed in triplicate for each sample and repeated at three times. Ct values were used to calculate the relative expression level normalized to the levels of Hprt1 or beta-actin expression.
(§3) ES cells EB formation and TICs spheroid assay: CGR8 ES cells were trypsinized into single cells and cultured in ES medium devoid of LIF in hanging drops (900 cells per EB) for 2 d and transferred to ultralow attachment plate for a further 2 d suspension culture. Then, EBs were plated onto gelatin coated tissue-culture plate for further 7 d spontaneously differentiation.
(§4) Right, western blot of HMGB2, RhoA, CDC42, Rac1/2/3 in TIC cells which were infected with miR-127 or GFP lentivirus.

The test system of another data set is MMP and Rho signaling. Briefly: Western blot of MMP and Rho signaling in TIC cells. The format is cell-based. Particulars: TIC cells, miR-127 lentivirus versus GFP (FIG. 15B). How it is done:
as §1
Cell Lines The LX-2 human stellate cell line was maintained in Dulbecco's Modified Eagle's Medium (DMEM) supplemented with 2% fetal bovine serum (FBS), 100 IU/ml penicillin, and 100 μg/ml streptomycin. Human hepatocellular carcinoma (HCC) MHCC97H cells were maintained in DMEM supplemented with 10% FBS, 100 IU/ml penicillin, and 100 μg/ml streptomycin, 1 mM HEPES, 1 mM sodium pyruvate, 2 mM L-glutamine. Tumor-initiating (TIC) cells were obtained from Dr. Hidekazu Tsukamoto at University of Southern California and were maintained in 1:1 DMEM:F12 supplement with 100 U/ml penicillin and 100 μg/ml streptomycin, 2 mM glutamine, 20 ng/ml mouse EGF, 10 nM dexamethasone, 1× embryomax nucleotides. All the cells were maintained at 37° C. humidified atmosphere with 5% CO2. TIC cells were infected with Hmgb2 shRNA lentivirus for 48 hr, and treated with 500 ng/ml puromycin for 2 weeks. The stable cells were used for migration and invasion assay, as well as western blot.

The next data set has as its system HMGB2 3′UTR. Briefly: HMGB2 3′UTR luciferase reporter assay in HEK293T cells. The format is cell-based, human. Conditions: 0, 75 or 150 ng miR-127 (FIG. 12A-12B). How it is done:
Luciferase reporter assay: 48 h after transfection with luciferase reporter plasmid and Renilla plasmid, cells were harvested and analyzed with the Dual-Luciferase reporter assay system (Promega) as described. All assays were done in triplicates, and all values were normalized for transfection efficiency against Renilla luciferase activities.
FIG. 12A is a sequence alignment of miR-127 and the 3′-UTR of HMGB2 in human, mouse and rat. The seed match region is indicated by underline. mut, mutant FIG. 12B is a Luciferase reporter assay. Left, HEK293T cells were transfected with HMGB2 3′UTR luciferase reporter with 0, 75 or 150 ng miR-127; Middle, HEK293T cells were transfected with wild-type or mutant HMGB2 3′UTR with or without 150 ng miR-127. Right, HEK293T cells were transfected with HMGB2 3′UTR with or without miR-127 antagomir. Luciferase activity was normalized to Renilla activity. In FIG. 12C, Western blotting was performed to determine endogenous HMGB2 protein in Hela cells that were transfected with pTarget, pTarget-miR-433, or pTarget-miR-127. β-Actin served as an internal control. In FIG. 12D, Left, western blot was performed to determine HMGB2 and CREB protein level in MHCC97H cells transfected with miR-127 for 24 hrs. Right, qPCR analysis of miR-127 level in MHCC97 cells transfected with miR-127 for 0, 24, 48 hrs. […]

For the next data set, the system named is TIC cells. Briefly: TIC cell spheroid assay. Format: cell-based. Particulars: TIC cells infected with miR-127 lentivirus (FIG. 15C). How it is done: TIC cells were trypsinized into single cells and 1000 cells were suspended in serum free TIC medium with 1% methylcellulose supplemented with B27, 20 ng/ml EGF and 20 ng/ml FGF in each well of 96-well ultralow attachment plate.

Data set [3] relates to CGR8 ES cells. Briefly: CGR8 ES cell differentiation and EB formation. The format is cell-based, mouse. Conditions: knockdown of HMGB2 (summary). The method, then:
as §2, §3
FIGS. 10A-C show the establishment of CGR8 cell culture and differentiation. […] Undifferentiated feeder-free CGR8 ES cells were maintained on 0.1% gelatin coated 6-cm tissue-culture dish in ES medium containing 10 ng/ml Leukemia inhibitory factor (LIF). For EB formation, CGR8 ES cells were trypsinized into single cells and cultured in ES medium devoid of LIF in hanging drops (900 cells per EB) for 2 d and in suspension culture for a further 2 d. Then, EBs were transferred onto gelatin coated tissue-culture plate for further spontaneously differentiation. ES withdraw LIF 2d, CGR8 ES cells were cultured in ES medium devoid of LIF for 2 d.
FIG. 14A is Left, Western blot of HMGB2 and SOX2 protein in HEK293T cells transfected with 0.5 μg […] expression plasmid and 0, 1 or 2 μg Flag-HMGB2 expression plasmid. Right, Western blot of HMGB2 and OCT4 protein in HEK293T cells transfected with 0.5 μg HA-OCT4 expression plasmid and 0, 1 or 2 μg Flag-HMGB2 expression plasmid. […] CGR8 cells were lysed, co-immunoprecipitated with OCT4 antibody, followed by Western blot with HMGB2 or OCT4 antibodies. FIG. 14 C is a luciferase reporter assay. HepG2 cells were infected with AAV8-GFP or AAV8-HMGB2 24 hrs before being transfected with 6*OS luciferase reporter and OCT4, SOX2 expression plasmids alone or in combination.

For data set [4], the system named is HMGB2 protein. Briefly: Western blot of HMGB2 protein in HCC cells transfected with miR-127. Format: cell-based, human. Particulars: HCC cells transfected with miR-127 (FIGS. 12C-F). The method, then:
as §1
Cell culture, Cell transfection:HEK293T, Hela, Hep3B and MHCC97H cells were cultured and transfected using X-tremeGENE™ HP DNA transfection reagent (Roche) as described previously. […]

The test system of data set [5] is HMGB2 protein. Briefly: Western blot of HMGB2 in TIC cells infected with miR-127 lentivirus. The format is cell-based. Particulars: miR-127 lentivirus versus GFP (FIG. 15B). How it is done: as §1, §4
Setting [6] is: miRNA overexpression, Huh7, HEK293T, Hepa1, or TIC (FIG. 11).

B1: miR-543: microRNA, accession number NR_030619.1, SEQ ID NO: 6 (nucleic acid, listed as Homo sapiens)
chain: TACTTAATGAGAAGTTGCCCGTGTTTTTTTCGCTTTATTTGTGACGAAACATTCGCGGTGCACTTCTTTTTCAGTATC
modifications: expressed or natural sequence
Consider B1, for which the HMGB2 protein entry in the data set on HMGB2 protein [1] (setting [6]) is reported as “decreased”.

B2: miR-127: microRNA, accession number NR_029696.1, SEQ ID NO: 4; targets the HMGB2 3′UTR (nucleic acid, listed as Homo sapiens)
chain: TGTGATCACTGTCTCCAGCCTGCTGAAGCTCAGAGGGCTCTGATTCAGAAAGATCATCGGATCCGTCTGAGCTTGGCTGGTCGGAAGTCTCATCATC
modifications: expressed or natural sequence
For B2, the “differentiation markers (Bmp5, Foxa2)” value in the data set with CGR8 ES cells [2] was “increases”. In addition, the “stem cell marker (Oct4, Nanog, Sox2) expression” value with CGR8 ES cells [2] is recorded as “decreases”. The Rhos/CDC42/Rac signaling result in the data set on MMP and Rho signaling is on record as “downregulates”. Further, the “targeting of HMGB2 3′UTR (luciferase reporter)” value in the data set with HMGB2 3′UTR was “targets the HMGB2 3′UTR”. Besides, the spheroid formation result in the data set with TIC cells is recorded as “downregulates”. In addition, the CGR8 differentiation entry in the data set with CGR8 ES cells [3] is given as “promotes CGR8 differentiation”. Besides, the HMGB2 protein entry is “decreases HMGB2 protein” with HMGB2 protein [4] and “downregulates” in the data set on HMGB2 protein [5].

B3: miR-539: microRNA, accession number NR_030256.1, SEQ ID NO: 5 (nucleic acid, listed as Homo sapiens)
chain: ATACTTGAGGAGAAATTATCCTTGGTGTGTTCGCTTTATTTATGATGAATCATACAAGGACAATTTCTTTTTGAGTAT
modifications: expressed or natural sequence
As for B3, the HMGB2 protein entry in the data set on HMGB2 protein [1] (setting [6]) was “decreased”; with HMGB2 protein [1] (only in Huh7), “inhibited”.

The record behind these values is patent publication US20180320177A1, “COMPOSITIONS AND METHODS FOR THE TREATMENT OF LIVER FIBROSIS” (UNIVERSITY OF CONNECTICUT, priority 2015, published 2018).
